The supplement of paper PMC9170038

System: K4 kissing-loop RNA reporter
Assay: apparent KD of K4 kissing-loop reporter; higher = weaker reporter binding
Conditions: Eterna round: R107
Procedure: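 RNA-MaP round R107: designed RNA switches with theophylline, tryptophan, arginine or FMN aptamers are transcribed on-chip within common flanks. They are titrated with a labelled K4 kissing-loop RNA reporter in RNA-MaP buffer (100 mM Tris pH 7.5, 80 mM KCl, 4 mM MgCl2), without ligand or with the indicated ligand. Median apparent KD per design.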

[1] = input ligand: theophylline 20 uM
[2] = input ligand: tryptophan 2.4 mM
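Further: bound reporter read as fluorescence of individual clusters on recovered sequencing chips by microscopy, with normalized cluster intensities fitted with a binding model.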

Row | Sequence | apparent KD of K4 kissing-loop reporter (input ligand: FMN 200 uM) | apparent KD of K4 kissing-loop reporter (input ligand: arginine 13.2 mM) | apparent KD of K4 kissing-loop reporter (input ligand: none) | apparent KD of K4 kissing-loop reporter [1] | apparent KD of K4 kissing-loop reporter [2]
1 | AAAAUAAACCAGUGAUGUUGGUGUCCGGAUACCAGCGAUAAUCAUCGCCCUUGGCAGCCGCGGACGUACAAAAUAAGUACGUCCU [MatMod 13 - Jieux - Same State - Theophylline A] | 457 nM | 271 nM | 346 nM | 310 nM | 256 nM
2 | AAAAUAAAGCAGUGAUGUUGCUUAUGAGAAGGAGCGCACGAAAGUGCAGGUAGGUCGCUCAGCCAAGUGGACGAAAACGUCCACA [#OpenEnded 10 #K4Early] | 112 nM | 122 nM | 123 nM | 144 nM | 90.4 nM
3 | AAAAUAAGCCAGUGAUGUUGGGAUCCAGAUACCAGCGACGAAAGUCGCCCUUGGCAGCUGUGGACGUACAAAAUAAGUACGUCCU | 924 nM | 706 nM | 1040 nM | 927 nM | 992 nM
4 | AAAAUUAACAAGAGUGAUGUUCUUGUUAGACAGGAUAUCGGUUUAACGAGAAGGGUCGUGGCUCCAUUGGGCCCAGUGGUUCACC [Mazareri] | 309 nM | 478 nM | 687 nM | 326 nM | 439 nM
5 | AAACAACUUGACGAUACCAGCUUACUCGGCAAGCCAGUGAUGUUGGUGAAAAGGAGUCAAAGCCCUUGGCAGCGUCGAAGGUCUG [Raatarerin] | 271 nM | 240 nM | 304 nM | 119 nM | 258 nM
6 | AAACGCUUGAAUAACAAGCGAAAUAAAAUUCGAGGACCGGUACGGCCGCCACUCGGGCUAACUGCGAGUGAUGUUCGAAAAUAAA [Mat - Mod of OpenEnded 3 - D17] | 156 nM | 191 nM | 257 nM | 405 nM | 73.2 nM
7 | AAACGUUGUUGCGAUACCAGCUGAUCGGAAACGAUCAUGCUGGAGUGAUGUUCCAGGAAAAGCCCUUGGCAGCGCAACGACGAAA [MAT - Same State Theophlline B - Mod of Eli - D30] | 276 nM | 134 nM | 228 nM | 296 nM | 179 nM
8 | AAACUACGUGACGAUACCAGCUUACUCGGCAAGCCAGUGAUGUUGGUGAAAAGGAGUCAAAGCCCUUGGCAGCGUCGAAGGUUUG [Usandiat] | 257 nM | 215 nM | 252 nM | 129 nM | 255 nM
9 | AAACUUGCAGUGAUGUUGCAAGUAGGUGAUACCAGCAUCGAAAGAUGCCCUUGGCAGCACCAACACUGUAAGUAAGUAUCACCAA [(H1)-(H2)-(T1)-(T2)-(H)'-(T)'_Design2] | 110 nM | 120 nM | 117 nM | 139 nM | 105 nM
10 | AAACUUGCAGUGAUGUUGCAAGUAGGUGAUACCAGCAUCGAAAGAUGCCCUUGGCAGCACCAUCACUGUAAGUAGGUGCUGUCAA [(H1)-(H2)-(T1)-(T2)-(H)'-(T)'_Design5] | 99.3 nM | 88.5 nM | 105 nM | 111 nM | 103 nM
11 | AAAGAUCUUCUAGAAACUAGAAGAUCAAGAGAGGAUAUCCGAAUUCGGAGAAGGCUCACUAAGUGAUGUUUGGACCCAAAGGGAA [AK3 SS FMN A] | 1460 nM | 1520 nM | 1650 nM | 1600 nM | 1030 nM
12 | AAAGUGUCAGCACGAGUGAUGUUCGUGGAUACCAGCCUCGAUAAAGGCCCUUGGCAGCCGAAAAGUCAAGGGCUGGCACAUAAAA [KL-XTheo-A11] | 216 nM | 205 nM | 251 nM | 341 nM | 226 nM
13 | AAAUAAAUCACGGCCGCCACUGUAAGUUGAAGUGAUGUUUCAAGAUAUAGUAUGUUUUAUAAUAUCAGGACCGGGUGAUUUUUAA [JR_SSTryptoB_Sub021] | 147 nM | 103 nM | 133 nM | 115 nM | 119 nM
14 | AAAUAAAUCAGAGGAUAUUCUUCCCACGUCGAAGUACCGUGCUUGAUGGAGUGAUGUUCGAUCAGAGAAGAAGGCUGAUAAAUAA [Same State FMN B GF 19] | 732 nM | 395 nM | 917 nM | 621 nM | 338 nM
15 | AAAUAAGCUCAUGAUACCAGCCAGUGAUGUUGGUUGGUCCACCGUGUCCGAACAUUAAGCGGCCCUUGGCAGCAUGAUGCGCGUA [Xearxea] | 125 nM | 98.5 nM | 90.1 nM | 119 nM | 118 nM
